In article PMC4816394:

Columns and labels:
[1] = target: human triosephosphate isomerase K13M, catalytically inactive (hTPI^Δcat) (human); assay: crystal structure; sitting drops, 28-34% PEG2000 MME, 50 mM KBr; space group P212121, a dimer in the asymmetric unit; 1.7 Å
[2] = target: human triosephosphate isomerase M82T (hTPI^M82T) (human); assay: SEC; purified TPI diluted to 15 uM in mobile phase, 100 ul injected, elution monitored at 280 nm; peak areas integrated for the relative monomer and dimer populations; dimer to monomers

stoichiometry N [1]	percent dimer (dimer:monomer ratio of peak areas) [2] [%]	Substance
2	–	human triosephosphate isomerase K13M, catalytically inactive (hTPI^Δcat) (enzyme)
–	5	human triosephosphate isomerase M82T (hTPI^M82T) (enzyme)
